± gives the uncertainty stated by the source.
assay: abundance fitness (aPCA) (normalised: wild type 0, dead -1); higher = more abundant; growth selection in yeast, the domain comes from the species named; details: Homo sapiens

Row | Substance | abundance fitness
1 | NEDD4-like E3 ubiquitin-protein ligase WWP2 Y454D, O00308 | -0.461 ± 0.12
2 | NEDD4-like E3 ubiquitin-protein ligase WWP2 Y454E, O00308 | -0.046 ± 0.052
3 | NEDD4-like E3 ubiquitin-protein ligase WWP2 Y454F, O00308 | -0.083 ± 0.059
4 | NEDD4-like E3 ubiquitin-protein ligase WWP2 Y454G, O00308 | -0.428 ± 0.045
5 | NEDD4-like E3 ubiquitin-protein ligase WWP2 Y454H, O00308 | -0.306 ± 0.066
6 | NEDD4-like E3 ubiquitin-protein ligase WWP2 Y454I, O00308 | -0.065 ± 0.062
7 | NEDD4-like E3 ubiquitin-protein ligase WWP2 Y454K, O00308 | -0.015 ± 0.067
8 | NEDD4-like E3 ubiquitin-protein ligase WWP2 Y454L, O00308 | -0.035 ± 0.031
9 | NEDD4-like E3 ubiquitin-protein ligase WWP2 Y454M, O00308 | -0.185 ± 0.063
10 | NEDD4-like E3 ubiquitin-protein ligase WWP2 Y454N, O00308 | -0.121 ± 0.077
11 | NEDD4-like E3 ubiquitin-protein ligase WWP2 Y454P, O00308 | -0.592 ± 0.068
12 | NEDD4-like E3 ubiquitin-protein ligase WWP2 Y454Q, O00308 | 0.008 ± 0.071
13 | NEDD4-like E3 ubiquitin-protein ligase WWP2 Y454R, O00308 | -0.029 ± 0.033
14 | NEDD4-like E3 ubiquitin-protein ligase WWP2 Y454S, O00308 | -0.132 ± 0.043
15 | NEDD4-like E3 ubiquitin-protein ligase WWP2 Y454T, O00308 | -0.006 ± 0.057
16 | NEDD4-like E3 ubiquitin-protein ligase WWP2 Y454V, O00308 | -0.047 ± 0.048
17 | NEDD4-like E3 ubiquitin-protein ligase WWP2 Y454W, O00308 | -0.056 ± 0.035
18 | NEDD4-like E3 ubiquitin-protein ligase WWP2 Y461A, O00308 | -0.669 ± 0.072
19 | NEDD4-like E3 ubiquitin-protein ligase WWP2 Y461C, O00308 | -0.538 ± 0.061
20 | NEDD4-like E3 ubiquitin-protein ligase WWP2 Y461D, O00308 | -1.1 ± 0.15
21 | NEDD4-like E3 ubiquitin-protein ligase WWP2 Y461E, O00308 | -0.577 ± 0.071
22 | NEDD4-like E3 ubiquitin-protein ligase WWP2 Y461F, O00308 | -0.236 ± 0.075
23 | NEDD4-like E3 ubiquitin-protein ligase WWP2 Y461G, O00308 | -0.863 ± 0.045
24 | NEDD4-like E3 ubiquitin-protein ligase WWP2 Y461H, O00308 | -0.526 ± 0.077

Row | Substance | abundance fitness
25 | NEDD4-like E3 ubiquitin-protein ligase WWP2 Y461I, O00308 | -0.509 ± 0.086
26 | NEDD4-like E3 ubiquitin-protein ligase WWP2 Y461K, O00308 | -0.621 ± 0.072
27 | NEDD4-like E3 ubiquitin-protein ligase WWP2 Y461L, O00308 | -0.375 ± 0.048
28 | NEDD4-like E3 ubiquitin-protein ligase WWP2 Y461M, O00308 | -0.424 ± 0.038
29 | NEDD4-like E3 ubiquitin-protein ligase WWP2 Y461N, O00308 | -0.752 ± 0.052
30 | NEDD4-like E3 ubiquitin-protein ligase WWP2 Y461P, O00308 | -0.824 ± 0.045
31 | NEDD4-like E3 ubiquitin-protein ligase WWP2 Y461Q, O00308 | -0.671 ± 0.079
32 | NEDD4-like E3 ubiquitin-protein ligase WWP2 Y461R, O00308 | -0.762 ± 0.046
33 | NEDD4-like E3 ubiquitin-protein ligase WWP2 Y461T, O00308 | -0.445 ± 0.067
34 | NEDD4-like E3 ubiquitin-protein ligase WWP2 Y461V, O00308 | -0.529 ± 0.055
35 | NEDD4-like E3 ubiquitin-protein ligase WWP2 Y461W, O00308 | -0.531 ± 0.053
36 | NEDD4-like E3 ubiquitin-protein ligase WWP2 Y491A, O00308 | -0.015 ± 0.059
37 | NEDD4-like E3 ubiquitin-protein ligase WWP2 Y491C, O00308 | -0.011 ± 0.049
38 | NEDD4-like E3 ubiquitin-protein ligase WWP2 Y491D, O00308 | 0.104 ± 0.074
39 | NEDD4-like E3 ubiquitin-protein ligase WWP2 Y491E, O00308 | 0.033 ± 0.064
40 | NEDD4-like E3 ubiquitin-protein ligase WWP2 Y491F, O00308 | 0.035 ± 0.07
41 | NEDD4-like E3 ubiquitin-protein ligase WWP2 Y491G, O00308 | 0.043 ± 0.04
42 | NEDD4-like E3 ubiquitin-protein ligase WWP2 Y491H, O00308 | 0.026 ± 0.072
43 | NEDD4-like E3 ubiquitin-protein ligase WWP2 Y491I, O00308 | 0.022 ± 0.068
44 | NEDD4-like E3 ubiquitin-protein ligase WWP2 Y491K, O00308 | -0.061 ± 0.064
45 | NEDD4-like E3 ubiquitin-protein ligase WWP2 Y491L, O00308 | -0.016 ± 0.036
46 | NEDD4-like E3 ubiquitin-protein ligase WWP2 Y491M, O00308 | 0.018 ± 0.061
47 | NEDD4-like E3 ubiquitin-protein ligase WWP2 Y491N, O00308 | -0.208 ± 0.076
48 | NEDD4-like E3 ubiquitin-protein ligase WWP2 Y491P, O00308 | -0.003 ± 0.036

Row | Substance | abundance fitness
49 | NEDD4-like E3 ubiquitin-protein ligase WWP2 Y491Q, O00308 | -0.01 ± 0.051
50 | NEDD4-like E3 ubiquitin-protein ligase WWP2 Y491R, O00308 | -0.001 ± 0.033
51 | NEDD4-like E3 ubiquitin-protein ligase WWP2 Y491S, O00308 | 0.037 ± 0.038
52 | NEDD4-like E3 ubiquitin-protein ligase WWP2 Y491T, O00308 | 0.039 ± 0.037
53 | NEDD4-like E3 ubiquitin-protein ligase WWP2 Y491V, O00308 | 0 ± 0.038
54 | NEDD4-like E3 ubiquitin-protein ligase WWP2 Y491W, O00308 | -0.104 ± 0.054
55 | Transcription factor SOX-11 A77S, P35716 | 0.01 ± 0.044
56 | Transcription factor SOX-11 A102Q, P35716 | -0.628 ± 0.44
57 | Transcription factor SOX-11 A111E, P35716 | -0.149 ± 0.094
58 | Transcription factor SOX-11 A111T, P35716 | 0.039 ± 0.048
59 | Transcription factor SOX-11 D92N, P35716 | -0.18 ± 0.054
60 | Transcription factor SOX-11 D92T, P35716 | -0.223 ± 0.079
61 | Transcription factor SOX-11 D115N, P35716 | -0.193 ± 0.16
62 | Transcription factor SOX-11 E69K, P35716 | -0.57 ± 0.29
63 | Transcription factor SOX-11 E69V, P35716 | -0.401 ± 0.074
64 | Transcription factor SOX-11 E78N, P35716 | -0.727 ± 0.09
65 | Transcription factor SOX-11 E78V, P35716 | -0.615 ± 0.066
66 | Transcription factor SOX-11 E103S, P35716 | -0.684 ± 0.072
67 | Transcription factor SOX-11 I62D, P35716 | -0.203 ± 0.065
68 | Transcription factor SOX-11 I67L, P35716 | -0.178 ± 0.066
69 | Transcription factor SOX-11 I79L, P35716 | -0.225 ± 0.058
70 | Transcription factor SOX-11 I96Q, P35716 | 0.03 ± 0.08
71 | Transcription factor SOX-11 I96R, P35716 | -0.209 ± 0.048
72 | Transcription factor SOX-11 I99V, P35716 | -0.094 ± 0.05

Row | Substance | abundance fitness
73 | Transcription factor SOX-11 I99Y, P35716 | -0.01 ± 0.053
74 | Transcription factor SOX-11 K50R, P35716 | -0.396 ± 0.13
75 | Transcription factor SOX-11 K85Q, P35716 | 0.228 ± 0.13
76 | Transcription factor SOX-11 K85S, P35716 | 0.026 ± 0.05
77 | Transcription factor SOX-11 K91S, P35716 | 0.081 ± 0.044
78 | Transcription factor SOX-11 K91T, P35716 | 0.151 ± 0.056
79 | Transcription factor SOX-11 K108Q, P35716 | -0.031 ± 0.13
80 | Transcription factor SOX-11 L90M, P35716 | 0.343 ± 0.13
81 | Transcription factor SOX-11 L107K, P35716 | -0.218 ± 0.14
82 | Transcription factor SOX-11 M68A, P35716 | -0.247 ± 0.066
83 | Transcription factor SOX-11 M68L, P35716 | 0.093 ± 0.059
84 | Transcription factor SOX-11 M74L, P35716 | -0.084 ± 0.056
85 | Transcription factor SOX-11 M89A, P35716 | 0.098 ± 0.071
86 | Transcription factor SOX-11 M110L, P35716 | -0.068 ± 0.053
87 | Transcription factor SOX-11 Q70A, P35716 | -0.128 ± 0.065
88 | Transcription factor SOX-11 R65K, P35716 | -0.364 ± 0.34
89 | Transcription factor SOX-11 R82I, P35716 | 0.406 ± 0.048
90 | Transcription factor SOX-11 R82M, P35716 | 0.124 ± 0.12
91 | Transcription factor SOX-11 R86S, P35716 | -0.07 ± 0.046
92 | Transcription factor SOX-11 R100E, P35716 | 0.218 ± 0.12
93 | Transcription factor SOX-11 S60A, P35716 | 0.15 ± 0.097
94 | Transcription factor SOX-11 S71C, P35716 | -0.055 ± 0.052
95 | Transcription factor SOX-11 S93L, P35716 | -0.568 ± 0.099
